# Measurements reported in the supplement of paper PMC10567573.
# B1: DYRK1B (parent)
# chain: YQGPGTRRLQEVLGVQTGGPGGRR
# Variants of: B1
# Test: protein stability index of a GFP-peptide fusion (GPS, HEK-293T) (PSI 1-6); higher = more stable
# Settings: c terminus: a fixed tail appended
# 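Further: lentivirally expressed fusions sorted by FACS into six bins by GFP to DsRed ratio, PSI derived from sequencing read proportions per bin multiplied by bin number.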
row,Variant,protein stability index
1,YQGPGFRRLQEVLGVQTGGPGGRR,2.88
2,YQGPGRRRLQEVLGVQTGGPGGRR,3.51
3,YQGPGCRRLQEVLGVQTGGPGGRR,2.32
4,YQGPGIRRLQEVLGVQTGGPGGRR,2.87
5,YQGPGARRLQEVLGVQTGGPGGRR,2.71
6,YQGPGNRRLQEVLGVQTGGPGGRR,2.68
7,YQGPGMRRLQEVLGVQTGGPGGRR,3.28
8,YQGPGQRRLQEVLGVQTGGPGGRR,3.4
9,YQGPGGRRLQEVLGVQTGGPGGRR,3.32
10,YQGPGWRRLQEVLGVQTGGPGGRR,2.17
11,YQGPGTRRLQEVLGVQTGGPGGGR,3.01
12,YQGPGTRRLQEVLGVQTGGPGGYR,2.67
13,YQGPGTRRLQEVLGVQTGGPGGPR,3.26
14,YQGPGTRRLQEVLGVQTGGPGGSR,2.59
15,YQGPGTRRLQEVLGVQTGGPGGHR,3.1
16,YQGPGTRRLQEVLGVQTGGPGGVR,2.88
17,YQGPGTRRLQEVLGVQCGGPGGRR,2.95
18,YQGPGTRRLQEVLGVQSGGPGGRR,2.77
19,YQGPGTRRLQEVLGVQKGGPGGRR,3.24
20,YQGPGTRRLQEVLGVQMGGPGGRR,3.24
21,YQGPGTRRLQEVLGVQPGGPGGRR,3.5
22,YQGPGTRRLQEVLLVQTGGPGGRR,2.75
23,YQGPGTRRLQEVLCVQTGGPGGRR,1.55
24,YQGPGTRRLQEVLYVQTGGPGGRR,2.98

row,Variant,protein stability index
1,YQGPGTRVLQEVLGVQTGGPGGRR,2.66
2,YQGPGTRHLQEVLGVQTGGPGGRR,4.21
3,YQGPGTRQLQEVLGVQTGGPGGRR,3.67
4,YQGPGTRYLQEVLGVQTGGPGGRR,1.91
5,YQGPGTRNLQEVLGVQTGGPGGRR,3.45
6,YQGPGTRGLQEVLGVQTGGPGGRR,3.14
7,YQGPGTRTLQEVLGVQTGGPGGRR,2.97
8,YQGPGTRALQEVLGVQTGGPGGRR,3.24
9,YQGPGTRCLQEVLGVQTGGPGGRR,2.21
10,YQGPGTRRLQEVLGVQTQGPGGRR,3.68
11,YQGPGTRRLQEVLGVQTLGPGGRR,2.74
12,YQGPGTRRLQEVLGVQTEGPGGRR,3.52
13,YQGPGTRRLQEVLGVQTFGPGGRR,3.23
14,YQGPGTRRLQEVLGVQTPGPGGRR,2.84
15,YQGPGTRRLQEVLGVQTKGPGGRR,2.6
16,YQGPGTRRLQEVLGVQTSGPGGRR,3.15
17,YQGPGTRRLQEVLGVQTDGPGGRR,4.02
18,YQGPGTRRLQEVLGVQTMGPGGRR,2.79
19,YQGPGTRRLQEVLGVQTWGPGGRR,2.81
20,YQGPGTRRLQEVLGVQTAGPGGRR,3
21,YQGPGTRRLQEVAGVQTGGPGGRR,3.58
22,YQGPGTRRLQEVPGVQTGGPGGRR,3.44
23,YQGPGTRRLQEVRGVQTGGPGGRR,3.61
24,YQGPGTRRLQEVNGVQTGGPGGRR,3.85

row,Variant,protein stability index
1,YQGPGTRRLQEVSGVQTGGPGGRR,4.07
2,YQGPGTRRLQEVCGVQTGGPGGRR,3.88
3,YQGPGTRRLQEVTGVQTGGPGGRR,3.97
4,YQGPGTRRLQEVDGVQTGGPGGRR,3.93
5,YQGPGTRRLQEVQGVQTGGPGGRR,3.89
6,YQGPGTRRLQEVGGVQTGGPGGRR,3.9
7,YQGPGTRRLQEVLGVQTGIPGGRR,2.85
8,YQGPGTRRLQEVLGVQTGKPGGRR,3.43
9,YQGPGTRRLQEVLGVQTGHPGGRR,2.98
10,YQGPGTRRLQEVLGVQTGFPGGRR,3.33
11,YQGPGTRRLQEVLGVQTGSPGGRR,2.81
12,YQGPGTRRLQEVLGVQTGTPGGRR,3.44
13,YQGPGTRRLQEVLGVQTGLPGGRR,2.81
14,YQGPGTRRLQEVLGVQTGNPGGRR,3.05
15,YQGPGTRRLQEVLGDQTGGPGGRR,3.23
16,YQGPGTRRLQEVLGTQTGGPGGRR,2.96
17,YQGPGTRRLQEVLGRQTGGPGGRR,3.34
18,YQGPGTRRLQEVLGCQTGGPGGRR,2.82
19,YQGPGTRRLQEVLGWQTGGPGGRR,3.1
20,YQGPGTRRLQEVLGIQTGGPGGRR,2.07
21,YQGPGTRRLQEVLGMQTGGPGGRR,2.24
22,YQGPGTRRLQEVLGQQTGGPGGRR,4
23,YQGPGTRRLQEVLGEQTGGPGGRR,3.44
24,YQGPGTRRLQEVLGKQTGGPGGRR,3.01

row,Variant,protein stability index
1,YQGPGTRRLQEVLGNQTGGPGGRR,3.81
2,YQFPGTRRLQEVLGVQTGGPGGRR,2.77
3,YQEPGTRRLQEVLGVQTGGPGGRR,4.32
4,YQVPGTRRLQEVLGVQTGGPGGRR,2.38
5,YQCPGTRRLQEVLGVQTGGPGGRR,3.58
6,YQSPGTRRLQEVLGVQTGGPGGRR,3.44
7,YQDPGTRRLQEVLGVQTGGPGGRR,3.83
8,YQRPGTRRLQEVLGVQTGGPGGRR,2.25
9,YQMPGTRRLQEVLGVQTGGPGGRR,3.03
10,YQGPGTRRLQEVLGVGTGGPGGRR,3.42
11,YQGPGTRRLQEVLGVATGGPGGRR,2.81
12,YQGPGTRRLQEVLGVETGGPGGRR,3.39
13,YQGPGTRRLQEVLGVVTGGPGGRR,2.61
14,YQGPGTRRLQEVLGVKTGGPGGRR,3.55
15,YQGPGTRRLQEVLGVFTGGPGGRR,2.01
16,YQGPGTRRLQEVLGVTTGGPGGRR,2.78
17,YQGPGTRRLCEVLGVQTGGPGGRR,2.72
18,YQGPGTRRLKEVLGVQTGGPGGRR,3.3
19,YQGPGTRRLVEVLGVQTGGPGGRR,2.52
20,YQGPGTRRLDEVLGVQTGGPGGRR,3.3
21,YQGPGTVRLQEVLGVQTGGPGGRR,3.03
22,YQGPGTARLQEVLGVQTGGPGGRR,3.68
23,YQGPGTKRLQEVLGVQTGGPGGRR,3.06
24,YQGPGTWRLQEVLGVQTGGPGGRR,1.77

row,Variant,protein stability index
1,YQGPGTERLQEVLGVQTGGPGGRR,4.05
2,YQGPGTDRLQEVLGVQTGGPGGRR,3.7
3,YQGCGTRRLQEVLGVQTGGPGGRR,2.29
4,YQGKGTRRLQEVLGVQTGGPGGRR,2.63
5,YQGRGTRRLQEVLGVQTGGPGGRR,2.78
6,YQGIGTRRLQEVLGVQTGGPGGRR,2.58
7,YQGFGTRRLQEVLGVQTGGPGGRR,1.68
8,YQGVGTRRLQEVLGVQTGGPGGRR,3.14
9,YQGPSTRRLQEVLGVQTGGPGGRR,3.42
10,YQGPHTRRLQEVLGVQTGGPGGRR,3.17
11,YQGPCTRRLQEVLGVQTGGPGGRR,3.38
12,YQGPPTRRLQEVLGVQTGGPGGRR,2.8
13,YQGPFTRRLQEVLGVQTGGPGGRR,1.92
14,YQGPWTRRLQEVLGVQTGGPGGRR,1.08
15,YQGPGTRRLQEVLGVQTGGPGVRR,2.95
16,YQGPGTRRLQEVLGVQTGGPGTRR,3.35
17,YQGPGTRRLQEVLGVQTGGPGHRR,3.29
18,YQGPGTRRLQEVLGVQTGGPGCRR,2.87
19,YQGPGTRRLQEVLGVQTGGPGMRR,2.67
20,YQGPGTRRLQEVLGVQTGGPGFRR,2.17
21,YQGPGTRRLQEVLGVQTGGPGYRR,2.63
22,YQGPGTRRLQEVLGVQTGGPGWRR,3.01
23,YQGPGTRRLQEVLGVQTGGPGERR,3.4
24,YSGPGTRRLQEVLGVQTGGPGGRR,1.83

row,Variant,protein stability index
1,YLGPGTRRLQEVLGVQTGGPGGRR,2.5
2,YPGPGTRRLQEVLGVQTGGPGGRR,3.44
3,YEGPGTRRLQEVLGVQTGGPGGRR,4.23
4,YIGPGTRRLQEVLGVQTGGPGGRR,2.52
5,YNGPGTRRLQEVLGVQTGGPGGRR,2.26
6,YRGPGTRRLQEVLGVQTGGPGGRR,3.87
7,YGGPGTRRLQEVLGVQTGGPGGRR,3.39
8,YQGPGTRRLQEVLGVQTGGIGGRR,2.84
9,YQGPGTRRLQEVLGVQTGGHGGRR,2.81
10,YQGPGTRRLQEVLGVQTGGEGGRR,3.3
11,YQGPGTRRLQEVLGVQTGGRGGRR,3.39
12,YQGPGTRRLQEVLGVQTGGMGGRR,3.02
13,YQGPGTRRLQEVLGVQTGGFGGRR,2.32
14,YQGPGTRRLQEVLGVQTGGNGGRR,3.1
15,YQGPGTRRLQEVLGVQTGGVGGRR,2.76
16,YQGPGTRRLQEVLGVQTGGWGGRR,2.02
17,YQGPGTRRLQEVLGVQTGGYGGRR,2.77
18,YQGPGTRRLQEVLGVQTGGAGGRR,3.22
19,PQGPGTRRLQEVLGVQTGGPGGRR,5.36
20,WQGPGTRRLQEVLGVQTGGPGGRR,3.9
21,MQGPGTRRLQEVLGVQTGGPGGRR,4.18
22,IQGPGTRRLQEVLGVQTGGPGGRR,4.33
23,QQGPGTRRLQEVLGVQTGGPGGRR,4.04
24,CQGPGTRRLQEVLGVQTGGPGGRR,4.48

row,Variant,protein stability index
1,AQGPGTRRLQEVLGVQTGGPGGRR,4.7
2,GQGPGTRRLQEVLGVQTGGPGGRR,4.41
3,YQGPGTRRLQEVLGVQTGGPGGRD,3.51
4,YQGPGTRRLQEVLGVQTGGPGGRH,3.17
5,YQGPGTRRLQEVLGVQTGGPGGRV,3.54
6,YQGPGTRRLQEVLGVQTGGPGGRC,3.18
7,YQGPGTRRLQEVLGVQTGGPGGRI,3.75
8,YQGPGTRRLQEVLGVQTGGPGGRF,2.49
9,YQGPGTRRLQEVLGVQTGGPGGRY,3.24
10,YQGPGTRRLQEVLGVQTGGPGGRS,3.45
11,YQGPGTRRLQEVLGVQTGGPGGRA,3.23
12,YQGPGTRRAQEVLGVQTGGPGGRR,4.03
13,YQGPGTRRRQEVLGVQTGGPGGRR,3.9
14,YQGPGTRRIQEVLGVQTGGPGGRR,2.97
15,YQGPGTRRDQEVLGVQTGGPGGRR,3.94
16,YQGPGTRRPQEVLGVQTGGPGGRR,4
17,YQGPGTRRWQEVLGVQTGGPGGRR,1.36
18,YQGPGTRRMQEVLGVQTGGPGGRR,3.71
19,YQGPGTRRFQEVLGVQTGGPGGRR,2.67
20,YQGPGTRRQQEVLGVQTGGPGGRR,4.31
21,YQGPGTRRLQRVLGVQTGGPGGRR,2.88
22,YQGPGTRRLQVVLGVQTGGPGGRR,2.56
23,YQGPGTRRLQCVLGVQTGGPGGRR,2.44
24,YQGPGTRRLQYVLGVQTGGPGGRR,2.97

row,Variant,protein stability index
1,YQGPGTRRLQQVLGVQTGGPGGRR,2.68
2,YQGPGTRRLQNVLGVQTGGPGGRR,2.98
3,YQGPGTRRLQKVLGVQTGGPGGRR,2.3
4,YQGPGTRRLQAVLGVQTGGPGGRR,2.57
5,YQGPGTRRLQTVLGVQTGGPGGRR,3.31
6,YQGPGTRRLQLVLGVQTGGPGGRR,2.28
7,YQGPGTRRLQEVLGVQTGGPMGRR,3.48
8,YQGPGTRRLQEVLGVQTGGPAGRR,3.25
9,YQGPGTRRLQEVLGVQTGGPYGRR,2.68
10,YQGPGTRRLQEVLGVQTGGPFGRR,2.93
11,YQGPGTRRLQEVLGVQTGGPVGRR,2.2
12,YQGPGTRRLQEVLGVQTGGPKGRR,2.74
13,YQGPGTRRLQEFLGVQTGGPGGRR,2.94
14,YQGPGTRRLQEMLGVQTGGPGGRR,2.59
15,YQGPGTRRLQEWLGVQTGGPGGRR,2.92
16,YQGPGTRRLQESLGVQTGGPGGRR,3.19
17,YQGPGTRRLQEGLGVQTGGPGGRR,3.32
18,YQGPGTRRLQEELGVQTGGPGGRR,3.66
19,YQGPGTRRLQECLGVQTGGPGGRR,3.26
20,YQGPGTRRLQETLGVQTGGPGGRR,3.75
